Test results reported in publication PMC11098500.
Values joined by “and” are separate entries in the source; they are usually repeats but may differ in a detail not shown here. Equal values may be shown once.

What was measured:
[1] = target: raccoon dog ACE2 ectodomain (residues 1-614), Fc-tagged (raccoon dog) (UniProt B4XEP4); experiment: SPR
[2] = target: domestic dog ACE2 ectodomain (residues 1-614), Fc-tagged (domestic dog); experiment: SPR

Substance	Kd [1]	Kd [2]
SARS-CoV-2 RBD (prototypic strain, residues 319-529), His-tagged (from UniProt P0DTC2 319-529) (domain or fragment)	297 nM and 449 nM and 450 nM	518 nM and 524 nM and 361 nM
SARS-CoV-2 RBD (residues 319-529), His-tagged (from UniProt P0DTC2 319-529) (domain or fragment)	–	468 nM
